Numbered stars: 1 amine (or outer) side, 2 acyl side, 3 side chain; on linkers, the order of the positions; unused ones are H or OH. Bridge positions count the residues as written; N and C are the ends. Side chains are listed from the residue outwards. Ends that are not written are not given here. * marks the point of attachment. C20 diacid = O=C(O)CCCCCCCCCCCCCCCCCCC(=O)*; γGlu = O=C(O)[C@H](CCC(=O)[*:2])N[*:1]; AEEA = NCCOCCOCC(=O)O
T1: human calcitonin receptor (human, UniProt P30988 25-474)
T1 sequence (looked up): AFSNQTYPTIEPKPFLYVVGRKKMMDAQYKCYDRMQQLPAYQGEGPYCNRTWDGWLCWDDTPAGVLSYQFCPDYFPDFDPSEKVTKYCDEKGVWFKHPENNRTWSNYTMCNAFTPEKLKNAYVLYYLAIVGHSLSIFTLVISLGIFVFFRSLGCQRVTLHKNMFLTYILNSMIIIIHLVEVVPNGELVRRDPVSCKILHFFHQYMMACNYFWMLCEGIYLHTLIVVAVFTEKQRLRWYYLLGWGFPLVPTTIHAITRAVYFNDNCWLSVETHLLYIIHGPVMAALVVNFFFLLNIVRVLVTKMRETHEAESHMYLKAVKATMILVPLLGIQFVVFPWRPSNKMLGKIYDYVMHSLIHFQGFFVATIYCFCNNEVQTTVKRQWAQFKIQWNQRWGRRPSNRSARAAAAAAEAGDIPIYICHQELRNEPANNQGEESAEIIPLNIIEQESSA

B1: N^ε1-[2-[2-[2-[[(4S)-4-carboxy-4-(19-carboxynonadecanoylamino)butanoyl]amino]ethoxy]ethoxy]acetyl]-[Ala14,Arg17,Pro21,Pro27,Pro31]-h-amylin (peptide)
peptide: K([AEEA-γGlu-C20 diacid])CNTATCATQRLAAFLRHSSPNFGAIPSSTPVGSNTY-NH2
modifications: disulfide 2-7; N-terminus assumed
SMILES: CC[C@H](C)[C@H](NC(=O)[C@H](C)NC(=O)CNC(=O)[C@H](Cc1ccccc1)NC(=O)[C@H](CC(N)=O)NC(=O)[C@@H]1CCCN1C(=O)[C@H](CO)NC(=O)[C@H](CO)NC(=O)[C@H](Cc1c[nH]cn1)NC(=O)[C@H](CCCNC(=N)N)NC(=O)[C@H](CC(C)C)NC(=O)[C@H](Cc1ccccc1)NC(=O)[C@H](C)NC(=O)[C@H](C)NC(=O)[C@H](CC(C)C)NC(=O)[C@H](CCCNC(=N)N)NC(=O)[C@H](CCC(N)=O)NC(=O)[C@@H](NC(=O)[C@H](C)NC(=O)[C@@H]1CSSC[C@H](NC(=O)[C@@H](N)CCCCNC(=O)COCCOCCNC(=O)CC[C@H](NC(=O)CCCCCCCCCCCCCCCCCCC(=O)O)C(=O)O)C(=O)N[C@@H](CC(N)=O)C(=O)N[C@@H]([C@@H](C)O)C(=O)N[C@@H](C)C(=O)N[C@@H]([C@@H](C)O)C(=O)N1)[C@@H](C)O)C(=O)N1CCC[C@H]1C(=O)N[C@@H](CO)C(=O)N[C@@H](CO)C(=O)N[C@H](C(=O)N1CCC[C@H]1C(=O)N[C@H](C(=O)NCC(=O)N[C@@H](CO)C(=O)N[C@@H](CC(N)=O)C(=O)N[C@H](C(=O)N[C@@H](Cc1ccc(O)cc1)C(N)=O)[C@@H](C)O)C(C)C)[C@@H](C)O
notes: also called compound 72
B2: N^ε1-[2-[2-[2-[[(4S)-4-carboxy-4-(19-carboxynonadecanoylamino)butanoyl]amino]ethoxy]ethoxy]acetyl]-[Arg14,Arg17,Pro21,Pro27,Pro31]-h-amylin (peptide)
peptide: K([AEEA-γGlu-C20 diacid])CNTATCATQRLARFLRHSSPNFGAIPSSTPVGSNTY-NH2
modifications: disulfide 2-7; N-terminus assumed
SMILES: CC[C@H](C)[C@H](NC(=O)[C@H](C)NC(=O)CNC(=O)[C@H](Cc1ccccc1)NC(=O)[C@H](CC(N)=O)NC(=O)[C@@H]1CCCN1C(=O)[C@H](CO)NC(=O)[C@H](CO)NC(=O)[C@H](Cc1c[nH]cn1)NC(=O)[C@H](CCCNC(=N)N)NC(=O)[C@H](CC(C)C)NC(=O)[C@H](Cc1ccccc1)NC(=O)[C@H](CCCNC(=N)N)NC(=O)[C@H](C)NC(=O)[C@H](CC(C)C)NC(=O)[C@H](CCCNC(=N)N)NC(=O)[C@H](CCC(N)=O)NC(=O)[C@@H](NC(=O)[C@H](C)NC(=O)[C@@H]1CSSC[C@H](NC(=O)[C@@H](N)CCCCNC(=O)COCCOCCNC(=O)CC[C@H](NC(=O)CCCCCCCCCCCCCCCCCCC(=O)O)C(=O)O)C(=O)N[C@@H](CC(N)=O)C(=O)N[C@@H]([C@@H](C)O)C(=O)N[C@@H](C)C(=O)N[C@@H]([C@@H](C)O)C(=O)N1)[C@@H](C)O)C(=O)N1CCC[C@H]1C(=O)N[C@@H](CO)C(=O)N[C@@H](CO)C(=O)N[C@H](C(=O)N1CCC[C@H]1C(=O)N[C@H](C(=O)NCC(=O)N[C@@H](CO)C(=O)N[C@@H](CC(N)=O)C(=O)N[C@H](C(=O)N[C@@H](Cc1ccc(O)cc1)C(N)=O)[C@@H](C)O)C(C)C)[C@@H](C)O
notes: also called compound 64
B3: N^ε1-[2-[2-[2-[[(4S)-4-carboxy-4-(19-carboxynonadecanoylamino)butanoyl]amino]ethoxy]ethoxy]acetyl]-[Arg17,Pro21,Pro27,His34]-h-amylin (peptide)
peptide: K([AEEA-γGlu-C20 diacid])CNTATCATQRLANFLRHSSPNFGAIPSSTNVGHNTY-NH2
modifications: disulfide 2-7; N-terminus assumed
SMILES: CC[C@H](C)[C@H](NC(=O)[C@H](C)NC(=O)CNC(=O)[C@H](Cc1ccccc1)NC(=O)[C@H](CC(N)=O)NC(=O)[C@@H]1CCCN1C(=O)[C@H](CO)NC(=O)[C@H](CO)NC(=O)[C@H](Cc1c[nH]cn1)NC(=O)[C@H](CCCNC(=N)N)NC(=O)[C@H](CC(C)C)NC(=O)[C@H](Cc1ccccc1)NC(=O)[C@H](CC(N)=O)NC(=O)[C@H](C)NC(=O)[C@H](CC(C)C)NC(=O)[C@H](CCCNC(=N)N)NC(=O)[C@H](CCC(N)=O)NC(=O)[C@@H](NC(=O)[C@H](C)NC(=O)[C@@H]1CSSC[C@H](NC(=O)[C@@H](N)CCCCNC(=O)COCCOCCNC(=O)CC[C@H](NC(=O)CCCCCCCCCCCCCCCCCCC(=O)O)C(=O)O)C(=O)N[C@@H](CC(N)=O)C(=O)N[C@@H]([C@@H](C)O)C(=O)N[C@@H](C)C(=O)N[C@@H]([C@@H](C)O)C(=O)N1)[C@@H](C)O)C(=O)N1CCC[C@H]1C(=O)N[C@@H](CO)C(=O)N[C@@H](CO)C(=O)N[C@H](C(=O)N[C@@H](CC(N)=O)C(=O)N[C@H](C(=O)NCC(=O)N[C@@H](Cc1c[nH]cn1)C(=O)N[C@@H](CC(N)=O)C(=O)N[C@H](C(=O)N[C@@H](Cc1ccc(O)cc1)C(N)=O)[C@@H](C)O)C(C)C)[C@@H](C)O
notes: also called compound 76
B4: N^ε1-[2-[2-[2-[[(4S)-4-carboxy-4-(19-carboxynonadecanoylamino)butanoyl]amino]ethoxy]ethoxy]acetyl]-[Gly14,Arg17,Pro21,Pro27,Pro31]-h-amylin (peptide)
peptide: K([AEEA-γGlu-C20 diacid])CNTATCATQRLAGFLRHSSPNFGAIPSSTPVGSNTY-NH2
modifications: disulfide 2-7; N-terminus assumed
SMILES: CC[C@H](C)[C@H](NC(=O)[C@H](C)NC(=O)CNC(=O)[C@H](Cc1ccccc1)NC(=O)[C@H](CC(N)=O)NC(=O)[C@@H]1CCCN1C(=O)[C@H](CO)NC(=O)[C@H](CO)NC(=O)[C@H](Cc1c[nH]cn1)NC(=O)[C@H](CCCNC(=N)N)NC(=O)[C@H](CC(C)C)NC(=O)[C@H](Cc1ccccc1)NC(=O)CNC(=O)[C@H](C)NC(=O)[C@H](CC(C)C)NC(=O)[C@H](CCCNC(=N)N)NC(=O)[C@H](CCC(N)=O)NC(=O)[C@@H](NC(=O)[C@H](C)NC(=O)[C@@H]1CSSC[C@H](NC(=O)[C@@H](N)CCCCNC(=O)COCCOCCNC(=O)CC[C@H](NC(=O)CCCCCCCCCCCCCCCCCCC(=O)O)C(=O)O)C(=O)N[C@@H](CC(N)=O)C(=O)N[C@@H]([C@@H](C)O)C(=O)N[C@@H](C)C(=O)N[C@@H]([C@@H](C)O)C(=O)N1)[C@@H](C)O)C(=O)N1CCC[C@H]1C(=O)N[C@@H](CO)C(=O)N[C@@H](CO)C(=O)N[C@H](C(=O)N1CCC[C@H]1C(=O)N[C@H](C(=O)NCC(=O)N[C@@H](CO)C(=O)N[C@@H](CC(N)=O)C(=O)N[C@H](C(=O)N[C@@H](Cc1ccc(O)cc1)C(N)=O)[C@@H](C)O)C(C)C)[C@@H](C)O
notes: also called compound 71
B5: N^ε1-[2-[2-[2-[[(4S)-4-carboxy-4-(19-carboxynonadecanoylamino)butanoyl]amino]ethoxy]ethoxy]acetyl]-[Arg17,Pro21,Pro27,Arg34]-h-amylin (peptide)
peptide: K([AEEA-γGlu-C20 diacid])CNTATCATQRLANFLRHSSPNFGAIPSSTNVGRNTY-NH2
modifications: disulfide 2-7; N-terminus assumed
SMILES: CC[C@H](C)[C@H](NC(=O)[C@H](C)NC(=O)CNC(=O)[C@H](Cc1ccccc1)NC(=O)[C@H](CC(N)=O)NC(=O)[C@@H]1CCCN1C(=O)[C@H](CO)NC(=O)[C@H](CO)NC(=O)[C@H](Cc1c[nH]cn1)NC(=O)[C@H](CCCNC(=N)N)NC(=O)[C@H](CC(C)C)NC(=O)[C@H](Cc1ccccc1)NC(=O)[C@H](CC(N)=O)NC(=O)[C@H](C)NC(=O)[C@H](CC(C)C)NC(=O)[C@H](CCCNC(=N)N)NC(=O)[C@H](CCC(N)=O)NC(=O)[C@@H](NC(=O)[C@H](C)NC(=O)[C@@H]1CSSC[C@H](NC(=O)[C@@H](N)CCCCNC(=O)COCCOCCNC(=O)CC[C@H](NC(=O)CCCCCCCCCCCCCCCCCCC(=O)O)C(=O)O)C(=O)N[C@@H](CC(N)=O)C(=O)N[C@@H]([C@@H](C)O)C(=O)N[C@@H](C)C(=O)N[C@@H]([C@@H](C)O)C(=O)N1)[C@@H](C)O)C(=O)N1CCC[C@H]1C(=O)N[C@@H](CO)C(=O)N[C@@H](CO)C(=O)N[C@H](C(=O)N[C@@H](CC(N)=O)C(=O)N[C@H](C(=O)NCC(=O)N[C@@H](CCCNC(=N)N)C(=O)N[C@@H](CC(N)=O)C(=O)N[C@H](C(=O)N[C@@H](Cc1ccc(O)cc1)C(N)=O)[C@@H](C)O)C(C)C)[C@@H](C)O
notes: also called compound 78
B6: N^ε1-[2-[2-[2-[[(4S)-4-carboxy-4-(19-carboxynonadecanoylamino)butanoyl]amino]ethoxy]ethoxy]acetyl]-[Arg14,Arg17,Pro21,Pro27]-h-amylin (peptide)
peptide: K([AEEA-γGlu-C20 diacid])CNTATCATQRLARFLRHSSPNFGAIPSSTNVGSNTY-NH2
modifications: disulfide 2-7; N-terminus assumed
SMILES: CC[C@H](C)[C@H](NC(=O)[C@H](C)NC(=O)CNC(=O)[C@H](Cc1ccccc1)NC(=O)[C@H](CC(N)=O)NC(=O)[C@@H]1CCCN1C(=O)[C@H](CO)NC(=O)[C@H](CO)NC(=O)[C@H](Cc1c[nH]cn1)NC(=O)[C@H](CCCNC(=N)N)NC(=O)[C@H](CC(C)C)NC(=O)[C@H](Cc1ccccc1)NC(=O)[C@H](CCCNC(=N)N)NC(=O)[C@H](C)NC(=O)[C@H](CC(C)C)NC(=O)[C@H](CCCNC(=N)N)NC(=O)[C@H](CCC(N)=O)NC(=O)[C@@H](NC(=O)[C@H](C)NC(=O)[C@@H]1CSSC[C@H](NC(=O)[C@@H](N)CCCCNC(=O)COCCOCCNC(=O)CC[C@H](NC(=O)CCCCCCCCCCCCCCCCCCC(=O)O)C(=O)O)C(=O)N[C@@H](CC(N)=O)C(=O)N[C@@H]([C@@H](C)O)C(=O)N[C@@H](C)C(=O)N[C@@H]([C@@H](C)O)C(=O)N1)[C@@H](C)O)C(=O)N1CCC[C@H]1C(=O)N[C@@H](CO)C(=O)N[C@@H](CO)C(=O)N[C@H](C(=O)N[C@@H](CC(N)=O)C(=O)N[C@H](C(=O)NCC(=O)N[C@@H](CO)C(=O)N[C@@H](CC(N)=O)C(=O)N[C@H](C(=O)N[C@@H](Cc1ccc(O)cc1)C(N)=O)[C@@H](C)O)C(C)C)[C@@H](C)O
notes: also called compound 82

The binders below were run against T1, human calcitonin receptor (assay: cell-based or functional assay).

In order of falling “hCTR funct. EC50” value:
1. B2  22.9 nM
2. B6  12.7 nM
3. B5  8.17 nM
4. B3  7.37 nM
5. B1  4.76 nM
6. B4  0.527 nM
